Measurements from paper PMC10955726, “DNA‐dependent phase separation by human SSB2 (NABP1/OBFC2A) protein points to adaptations to eukaryotic genome repair processes”.

What was measured:
[1] = biological target: T1, hSSB2 (C-terminally His-tagged) (Homo sapiens, UniProt Q96AH0 1-204); experiment: fluorescence anisotropy; no MgCl2; Hill n 3.3; Anisotropy: standard LLPS buffer without MgCl2 (50 mM KCl standard), 25 C, 10 nM probe; EMSA: standard LLPS buffer (50 mM KCl, 10 mM MgCl2), 50 nM probe, 1% agarose; buffer species and pH not in the material; settings: protein: recombinant; tags: C-terminal His; label: 3'-fluorescein; single strand
T1 sequence (Q96AH0 whole entry): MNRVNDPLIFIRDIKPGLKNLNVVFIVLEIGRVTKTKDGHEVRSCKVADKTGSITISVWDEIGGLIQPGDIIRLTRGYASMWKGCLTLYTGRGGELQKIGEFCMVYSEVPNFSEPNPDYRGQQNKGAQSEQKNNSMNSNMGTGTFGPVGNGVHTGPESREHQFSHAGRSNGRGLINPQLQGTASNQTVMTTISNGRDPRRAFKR

[2] = biological target: T1, hSSB2 (C-terminally His-tagged); experiment: fluorescence anisotropy; no MgCl2; Hill n 2.7; Anisotropy: standard LLPS buffer without MgCl2 (50 mM KCl standard), 25 C, 10 nM probe; EMSA: standard LLPS buffer (50 mM KCl, 10 mM MgCl2), 50 nM probe, 1% agarose; buffer species and pH not in the material; settings: protein: recombinant; tags: C-terminal His; label: 3'-fluorescein; single strand
hSSB2-dIDR = hSSB2-dIDR (Homo sapiens, UniProt Q96AH0 1-100); experiment: fluorescence anisotropy; no MgCl2; Hill n 2.4; Anisotropy: standard LLPS buffer without MgCl2 (50 mM KCl standard), 25 C, 10 nM probe; EMSA: standard LLPS buffer (50 mM KCl, 10 mM MgCl2), 50 nM probe, 1% agarose; buffer species and pH not in the material; settings: protein: recombinant; tags: His (terminus not clearly stated); label: 3'-fluorescein; single strand
Chain of hSSB2-dIDR (Q96AH0 1-100): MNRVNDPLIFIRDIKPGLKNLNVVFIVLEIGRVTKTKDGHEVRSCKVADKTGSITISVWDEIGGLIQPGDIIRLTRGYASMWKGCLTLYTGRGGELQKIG

[3] = biological target: T1, hSSB2 (C-terminally His-tagged); experiment: fluorescence anisotropy; no MgCl2; Hill n 1.1; Anisotropy: standard LLPS buffer without MgCl2 (50 mM KCl standard), 25 C, 10 nM probe; EMSA: standard LLPS buffer (50 mM KCl, 10 mM MgCl2), 50 nM probe, 1% agarose; buffer species and pH not in the material; settings: protein: recombinant; tags: C-terminal His; label: 3'-fluorescein; single strand

AUUUUUGCGGAUGGCUUAGAGCUUAAUUGCGCAACG (ssRNA) [ss36 RNA]
Kd [1]: 870 ± 170 nM

ATTTTTGCGGATGGCTTAGAGCTTAATTGCGCAACG (ssDNA) [ss36 DNA]
Kd [2]: 530 ± 20 nM

B1: ss54 DNA (ssDNA)
DNA: TCCTTTTGATAAGAGGTCATTTTTGCGGATGGCTTAGAGCTTAATTGCGCAACG
Kd (hSSB2-dIDR): 850 ± 20 nM | Kd [3]: 87 ± 7 nM
